Experiment [1] deals with T1, human TREM2 (human) (UniProt Q9NZC2).
T1 sequence (looked up): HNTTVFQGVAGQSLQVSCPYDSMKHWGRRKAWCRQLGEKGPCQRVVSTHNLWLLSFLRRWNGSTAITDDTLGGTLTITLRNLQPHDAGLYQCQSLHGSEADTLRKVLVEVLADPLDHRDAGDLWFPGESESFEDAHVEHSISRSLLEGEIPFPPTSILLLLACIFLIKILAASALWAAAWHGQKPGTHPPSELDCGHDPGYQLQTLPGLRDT
Put plainly: 2nd screen, 2 nM Ab.

The target in experiment [2] is T1, human TREM2 (human). Put plainly: 1st screen, 10 nM Ab.
Experiment [3] addresses T1, human TREM2 (human). Nature of the experiment: 2nd screen, 10 nM Ab.

B1: 6E7 variant V14 (antibody, V domains shown)
VH: EVQLVQSGAEVKKPGESLKISCKGSGYSFGSYWIAWVRQMPGKGLEWMGIIYPGDQDTRYSPSFQGQVTISADKSISTAYLQWSSLKASDTAMYFCARGRTFYYDSSDYFDYWGQGTLVTVSS
VL: DIQMTQSPSSVSASVGDRVTITCRASQGISSWLAWYQQKPGKAPKLLIYAASRLQNGVPSRFSGSGSGTDFTLTISSLQPEDFATYFCQQADSFPRTFGQGTKLEIK
Consider B1, for which the Binding Signal (fold over 6E7 parental antibody) with human TREM2 (human) [1] turned out to be 2.57 fold; with human TREM2 (human) [2], 4.71 fold; with human TREM2 (human) [3], 4.64 fold.

B2: 6E7 variant V17 (antibody, V domains shown)
VH: EVQLVQSGAEVKKPGESLKISCKGSGYSFGSYWIAWVRQMPGKGLEWMGIIYPGDSDTRYSPSFQGQVTISADKSISTAYLQWSSLKASDTAMYFCARSRTFYYDSSDYFDYWGQGTLVTVSS
VL: DIQMTQSPSSVSASVGDRVTITCRASQGISSWLAWYQQKPGKAPKLLIYAASSRQNGVPSRFSGSGSGTDFTLTISSLQPEDFATYFCQQADSSPRTFGQGTKLEIK
On to B2, for which the Binding Signal (fold over 6E7 parental antibody) turned out to be 4.22 fold with human TREM2 (human) [1], 5.37 fold in the experiment with human TREM2 (human) [2] and 5.51 fold with human TREM2 (human) [3].

B3: 6E7 variant V15 (antibody, V domains shown)
VH: EVQLVQSGAEVKKPGESLKISCKGSGYSFASYWIAWVRQMPGKGLEWMGTIYPGDSDTRYSPSFQGQVTISADKSISTAYLQWSSLKASDTAMYFCARSRTFYYDSSDYFDYWGQGTLVTVSS
VL: DIQMTQSPSSVSASVGDRVTITCRASQGISSWLAWYQQKPGKAPKLLIYAASWLQNGVPSRFSGSGSGTDFTLTISSLQPEDFATYFCQQADSYPRTFGQGTKLEIK
As to B3, the Binding Signal (fold over 6E7 parental antibody) in the experiment with human TREM2 (human) [1] is 4.72 fold; in the experiment with human TREM2 (human) [2], 5.23 fold; in the experiment with human TREM2 (human) [3] it was 4.78 fold.

B4: 6E7 variant V24 (antibody, V domains shown)
VH: EVQLVQSGAEVKKPGESLKISCKGSGYSFTSYWIAWVRQMPGKGLEWMGIIYPGDSDVRYSPSFQGQVTISADKSISTAYLQWSSLKASDTAMYFCARSRTFYYDSSDYFDYWGQGTLVTVSS
VL: DIQMTQSPSSVSASVGDRVTITCRASQGISSWLAWYQQKPGKAPKLLIYAASSLQKGVPSRFSGSGSGTDFTLTISSLQPEDFATYFCQQADSFPHTFGQGTKLEIK
For B4, the Binding Signal (fold over 6E7 parental antibody) with human TREM2 (human) [1] is 1.42 fold; with human TREM2 (human) [2] it was 2.64 fold; in the experiment with human TREM2 (human) [3] it was 2.9 fold.

B5: 6E7 variant V16 (antibody, V domains shown)
VH: EVQLVQSGAEVKKPGESLKISCKGSGYSMTSYWIAWVRQMPGKGLEWMGIIYPGDGDTRYSPSFQGQVTISADKSISTAYLQWSSLKASDTAMYFCARSRTFYYDSSDYFDYWGQGTLVTVSS
VL: DIQMTQSPSSVSASVGDRVTITCRASQGISSWLAWYQQKPGKAPKLLIYAASNLQNGVPSRFSGSGSGTDFTLTISSLQPEDFATYFCQQADSFPRTFGQGTKLEIK
For the molecule B5, the Binding Signal (fold over 6E7 parental antibody) is 3.57 fold with human TREM2 (human) [1], 4.01 fold in the experiment with human TREM2 (human) [2] and 4.04 fold in the experiment with human TREM2 (human) [3].

B6: 6E7 variant V25 (antibody, V domains shown)
VH: EVQLVQSGAEVKKPGESLKISCKGSGYSFGSYWIAWVRQMPGKGLEWMGLIYPGDSDTRYSPSFQGQVTISADKSISTAYLQWSSLKASDTAMYFCARSRTFYYDSSDYFDYWGQGTLVTVSS
VL: DIQMTQSPSSVSASVGDRVTITCRASQGISSWLAWYQQKPGKAPKLLIYAASSLANGVPSRFSGSGSGTDFTLTISSLQPEDFATYFCQQADSMPRTFGQGTKLEIK
On to B6, for which the Binding Signal (fold over 6E7 parental antibody) with human TREM2 (human) [1] is 3.15 fold; in the experiment with human TREM2 (human) [2], 4.23 fold; with human TREM2 (human) [3] it was 4.7 fold.

For the origin of these results see US20260250381A1.
